Test results published in US20180245061A1, “Modified Heterocyclase” (THE UNIVERSITY COURT OF THE UNIVERSITY OF ABERDEEN, priority 2014, published 2018).

What was measured:
PatE′ = assay: Heterocyclization reaction with PatE′, MS analysis; type: biochemical; conditions: 2 μM enzyme, 5 mM ATP, 5 mM MgCl2, 16 h at 37° C.; TABLE 2
Method: (§1) For all heterocyclization reactions, […] PatE′ (and variants,) was incubated with 2 μM enzyme in 150 mM NaCl, 10 mM HEPES pH 7.4, 1 mM TCEP, 5 mM ATP and 5 mM MgCl2 for 16 h at 37° C. Samples were analyzed by ESI or MALDI MS (LCT, Micromass or 4800 MALDI TOF/TOF Analyzer, ABSciex). For cis trans activation studies, 100 μM ITACITFCAYDG synthetic test peptide (Peptide Protein Research Ltd) was reacted with 5 μM heterocyclase enzyme in the presence and absence of 5.5 μM LAELSEEAL synthetic peptide, or 5.5 μM full-length PatE′4 leader peptide. The reaction was carried out in 150 mM NaCl, 10 mM HEPES pH 7.4, 1 mM TCEP, 5 mM ATP and 5 mM MgCl2 for 16 h at 37° C. and analyzed as above. Synthetic peptides were purchased from Peptide Protein Research Ltd.

[1] = molecular target: T1, PatE' (precursor peptide PatE variant, 64 amino acids, full leader, single core peptide ITACITFC, C-terminal …); assay: ITC, 20 C, one-site model with stoichiometry set to 1; LynD mutant in the cell, peptide in the syringe
T1 peptide: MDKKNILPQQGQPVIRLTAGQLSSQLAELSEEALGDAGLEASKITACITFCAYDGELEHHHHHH

PatE' E32R = molecular target: T2, PatE' E32R; assay: as above
T2 construct: Point mutant of PatE'
T2 peptide: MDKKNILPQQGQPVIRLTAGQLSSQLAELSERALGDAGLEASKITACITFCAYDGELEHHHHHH

PatE′ E32R = assay: Heterocyclization reaction with PatE′ E32R; type: biochemical; conditions: 2 μM enzyme, 5 mM ATP, 5 mM MgCl2, 16 h at 37° C.
Method: as §1

B1: LynD R399E (enzyme)
chain: MQSTPLLQIQPHFHVEVIEPKQVYLLGEQANHALTGQLYCQILPLLNGQYTLEQIVEKLDGEVPPEYIDYVLERLAEKGYLTEAAPELSSEVAAFWSELGIAPPVAAEALRQPVTLTPVGNISEVTVAALTTALRDIGISVQTPTEAGSPTALNVVLTDDYLQPELAKINKQALESQQTWLLVKPVGSVLWLGPVFVPGKTGCWDCLAHRLRGNREVEASVLRQKQAQQQRNGQSGSVIGCLPTARATLPSTLQTGLQFAATEIAKWIVKYHVNATAPGTVFFPTLDGKIITLNHSILDLKSHILIKRSQCPTCGDPKILQHRGFEPLKLESRPKQFTSDGGHRGTTPEQTVQKYQHLISPVTGVVTELVRITDPANPLVHTYRAGHSFGSATSLRGLENTLKHKSSGKGKTDSQSKASGLCEAVERYSGIFQGDEPRKRATLAELGDLAIHPEQCLCFSDGQYANRETLNEQATVAHDWIPQRFDASQAIEWTPVWSLTEQTHKYLPTALCYYHYPLPPEHRFARGDSNGNAAGNTLEEAILQGFMELVERDGVALWWYNRLRRPAVDLGSFNEPYFVQLQQFYRENDRDLWVLDLTADLGIPAFAGVSNRKTGSSERLILGFGAHLDPTIAILRAVTEVNQIGLELDKVPDENLKSDATDWLITEKLADHPYLLPDTTQPLKTAQDYPKRWSDDIYTDVMTCVNIAQQAGLETLVIDQTRPDIGLNVVKVTVPGMRHFWSRFGEGRLYDVPVKLGWLDEPLTEAQMNPTPMPF
notes: Point mutant of LynD
In the case of B1, the “No. of heterocycles, peptide PatE′” value (PatE′) is reported as 2, the Kd [1] is reported as 10.7 µM and the Kd (PatE' E32R) is reported as 8.55 µM. For the same molecule, the “No. of heterocycles, peptide PatE′ E32R” value (PatE′ E32R) was 2.
